Test results published in paper PMC6860931, “Role of the malic enzyme in metabolism of the halotolerant methanotroph Methylotuvimicrobium alcaliphilum 20Z” (PLoS ONE, 2019).

Experiments:
purified protein [1] = substrate: O=C(O)C[C@H](O)C(=O)O; assay: purified protein; conditions: NAD+ as co-substrate, assay mixture 0.3 mM NAD+, 2.5 mM MgCl2, 50 mM Tris-HCl, pH 9.0, 30°C
purified protein [2] = substrate: NC(=O)c1ccc[n+]([C@@H]2O[C@H](COP(=O)(O)OP(=O)(O)OC[C@H]3O[C@@H](n4cnc5c(N)ncnc54)[C@H](O)[C@@H]3O)[C@@H](O)[C@H]2O)c1; assay: purified protein; assay type: biochemical, Methylotuvimicrobium alcaliphilum; conditions: malate as co-substrate, assay mixture 10 mM malate, 2.5 mM MgCl2, 50 mM Tris-HCl, pH 9.0, 30°C, varied: cofactor

B1: Mae (malic enzyme from Mtm. alcaliphilum 20Z) (Methylotuvimicrobium alcaliphilum 20Z) (protein)
chain: MTAMSKTPLYIPYAGPALLEMPLLNKGCAFSKEERQTFNLTGLLPPRYETIEEQVQRAYLQYSSFRNAINKHIYLRSIQDNNETLFYRLLQDHLPEMLPIIYTPTVGDACEQFSDIYRSSRGLFISYVDRQQIDDILRNTTKRNVKIIVVTDGERVLGLGDQGIGGMGISIGKLSLYTACGGISPAYTLPVVLDVGTNNEKLLQDPMYMGERHRRIPQAEYDAFIDFFLQAVKRRWPDVIVQFEDFAQPNAMPILQRYRDQLCCFNDDIQGTAAVTVGTLLAACRVKNRKLSEQRVVFVGAGSAGCGIAEQVIAQMRTEGLSDREARHRVYMVDRFGLLTESMTGLRDFQQKLVQVSNRLEDWSIESDYPSLLEVIQYAKPTVLIGVSGQHGIFTETVIRTMTQGCDWPIIFPLSNPPRQVEATPEQIIEWTEGRVLLAAGSPFPPVEYGGKRYDVTQCNNSYIFPGIGLGVIAVQARRISDEMLIAASETLAAASPLANTGQGELLPPLTELPELSKRIAFAVGKVALKQNLALEISDEQLLKSIEENFWQPVYRHYKRVCF
notes: full-length, 1689 bp gene, pET22b(+) NdeI/XhoI, His6-tagged, E. coli BL21 (DE3), Ni-NTA
- Km (purified protein [1]): 5500 ± 800 µM
- Km (purified protein [2]): 57 ± 5 µM
